Laboratory results as given in paper PMC11897886 (Nucleic Acids Research, 2024).

Experiments:
Assay in all cases: pull-down
[1] = biological target: T1, Upf2-Ct (Saccharomyces cerevisiae, UniProt P38798 933-1089)
T1 sequence: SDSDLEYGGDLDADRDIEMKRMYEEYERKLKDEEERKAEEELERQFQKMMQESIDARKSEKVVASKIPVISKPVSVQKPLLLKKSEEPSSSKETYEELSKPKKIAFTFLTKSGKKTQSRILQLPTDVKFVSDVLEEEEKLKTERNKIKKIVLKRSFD

[2] = biological target: T2, Upf1-FL (Saccharomyces cerevisiae, UniProt P30771 1-971)
T2 sequence: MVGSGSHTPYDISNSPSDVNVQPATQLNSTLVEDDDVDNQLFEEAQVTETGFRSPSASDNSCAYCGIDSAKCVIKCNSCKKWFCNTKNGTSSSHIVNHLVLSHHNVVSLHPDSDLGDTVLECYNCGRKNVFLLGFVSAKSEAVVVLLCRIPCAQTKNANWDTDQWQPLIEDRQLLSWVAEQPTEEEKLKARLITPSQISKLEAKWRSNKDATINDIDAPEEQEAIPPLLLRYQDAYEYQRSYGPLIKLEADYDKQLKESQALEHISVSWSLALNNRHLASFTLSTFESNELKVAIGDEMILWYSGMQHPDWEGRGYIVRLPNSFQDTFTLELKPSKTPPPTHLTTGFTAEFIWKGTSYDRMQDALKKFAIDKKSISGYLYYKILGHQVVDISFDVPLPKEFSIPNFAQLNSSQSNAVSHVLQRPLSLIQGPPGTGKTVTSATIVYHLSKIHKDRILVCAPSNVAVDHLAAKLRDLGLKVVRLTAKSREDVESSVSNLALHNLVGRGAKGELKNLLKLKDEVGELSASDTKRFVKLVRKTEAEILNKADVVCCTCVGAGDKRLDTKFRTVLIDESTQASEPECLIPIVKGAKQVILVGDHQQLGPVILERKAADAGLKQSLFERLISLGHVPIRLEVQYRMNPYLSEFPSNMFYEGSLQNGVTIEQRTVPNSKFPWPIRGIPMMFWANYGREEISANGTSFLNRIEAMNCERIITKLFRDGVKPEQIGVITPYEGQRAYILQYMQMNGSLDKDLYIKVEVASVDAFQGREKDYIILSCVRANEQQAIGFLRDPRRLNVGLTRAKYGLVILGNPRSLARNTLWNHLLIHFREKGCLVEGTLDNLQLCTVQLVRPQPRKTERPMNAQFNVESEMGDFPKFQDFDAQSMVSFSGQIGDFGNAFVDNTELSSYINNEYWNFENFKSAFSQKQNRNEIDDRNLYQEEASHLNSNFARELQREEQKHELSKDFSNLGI

[3] = biological target: T3, Dcp2-UBM (Saccharomyces cerevisiae, UniProt P53550 434-720)
T3 sequence: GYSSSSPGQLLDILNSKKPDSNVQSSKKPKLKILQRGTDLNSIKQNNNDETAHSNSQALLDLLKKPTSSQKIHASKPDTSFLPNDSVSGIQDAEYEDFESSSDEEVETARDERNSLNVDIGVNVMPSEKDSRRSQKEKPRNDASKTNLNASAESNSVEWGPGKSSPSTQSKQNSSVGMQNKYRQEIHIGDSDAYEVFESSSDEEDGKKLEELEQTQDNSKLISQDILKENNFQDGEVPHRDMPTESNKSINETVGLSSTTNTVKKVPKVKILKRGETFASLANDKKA

[4] = biological target: T4, Upf1-FL;Nmd4 (Saccharomyces cerevisiae;Saccharomyces …, UniProt P30771;Q12129 1-971;1-218, |)
T4 sequence 1: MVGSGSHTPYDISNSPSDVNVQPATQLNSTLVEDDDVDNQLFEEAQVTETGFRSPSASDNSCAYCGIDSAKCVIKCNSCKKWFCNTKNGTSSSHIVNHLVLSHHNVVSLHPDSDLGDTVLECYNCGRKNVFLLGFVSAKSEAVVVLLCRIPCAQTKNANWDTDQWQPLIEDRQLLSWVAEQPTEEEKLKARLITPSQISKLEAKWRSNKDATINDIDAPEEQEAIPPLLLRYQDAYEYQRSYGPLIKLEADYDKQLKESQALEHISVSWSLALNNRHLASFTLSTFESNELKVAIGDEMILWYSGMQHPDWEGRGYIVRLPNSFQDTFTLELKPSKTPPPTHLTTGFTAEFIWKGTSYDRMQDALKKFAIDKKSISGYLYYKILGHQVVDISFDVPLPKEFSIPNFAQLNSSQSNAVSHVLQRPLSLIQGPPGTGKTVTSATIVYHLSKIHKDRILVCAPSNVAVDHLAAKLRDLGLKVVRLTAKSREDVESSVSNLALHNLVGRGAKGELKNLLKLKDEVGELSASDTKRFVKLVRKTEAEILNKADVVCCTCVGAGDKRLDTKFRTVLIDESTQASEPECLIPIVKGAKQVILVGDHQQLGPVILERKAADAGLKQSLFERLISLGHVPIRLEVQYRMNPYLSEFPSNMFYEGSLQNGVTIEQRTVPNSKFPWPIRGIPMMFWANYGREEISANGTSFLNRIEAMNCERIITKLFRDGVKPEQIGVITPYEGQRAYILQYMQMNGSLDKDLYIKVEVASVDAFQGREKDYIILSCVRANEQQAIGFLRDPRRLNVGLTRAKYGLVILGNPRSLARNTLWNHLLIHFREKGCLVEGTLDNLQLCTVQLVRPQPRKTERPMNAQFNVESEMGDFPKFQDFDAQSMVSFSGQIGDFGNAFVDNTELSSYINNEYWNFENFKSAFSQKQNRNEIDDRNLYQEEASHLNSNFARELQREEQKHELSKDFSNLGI
T4 sequence 2: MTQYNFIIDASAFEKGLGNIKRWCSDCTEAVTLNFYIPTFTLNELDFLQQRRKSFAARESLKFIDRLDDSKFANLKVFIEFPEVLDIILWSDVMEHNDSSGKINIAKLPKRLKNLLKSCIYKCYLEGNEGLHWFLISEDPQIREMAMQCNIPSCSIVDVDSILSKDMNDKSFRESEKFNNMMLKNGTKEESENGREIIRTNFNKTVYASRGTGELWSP

[5] = biological target: T5, Upf1-FL;Nmd4;Dcp2-UBM (Saccharomyces cerevisiae;Saccharomyces …, UniProt P30771;Q12129;P53550 1-971;1-218;434-720, ||)
T5 sequence 1: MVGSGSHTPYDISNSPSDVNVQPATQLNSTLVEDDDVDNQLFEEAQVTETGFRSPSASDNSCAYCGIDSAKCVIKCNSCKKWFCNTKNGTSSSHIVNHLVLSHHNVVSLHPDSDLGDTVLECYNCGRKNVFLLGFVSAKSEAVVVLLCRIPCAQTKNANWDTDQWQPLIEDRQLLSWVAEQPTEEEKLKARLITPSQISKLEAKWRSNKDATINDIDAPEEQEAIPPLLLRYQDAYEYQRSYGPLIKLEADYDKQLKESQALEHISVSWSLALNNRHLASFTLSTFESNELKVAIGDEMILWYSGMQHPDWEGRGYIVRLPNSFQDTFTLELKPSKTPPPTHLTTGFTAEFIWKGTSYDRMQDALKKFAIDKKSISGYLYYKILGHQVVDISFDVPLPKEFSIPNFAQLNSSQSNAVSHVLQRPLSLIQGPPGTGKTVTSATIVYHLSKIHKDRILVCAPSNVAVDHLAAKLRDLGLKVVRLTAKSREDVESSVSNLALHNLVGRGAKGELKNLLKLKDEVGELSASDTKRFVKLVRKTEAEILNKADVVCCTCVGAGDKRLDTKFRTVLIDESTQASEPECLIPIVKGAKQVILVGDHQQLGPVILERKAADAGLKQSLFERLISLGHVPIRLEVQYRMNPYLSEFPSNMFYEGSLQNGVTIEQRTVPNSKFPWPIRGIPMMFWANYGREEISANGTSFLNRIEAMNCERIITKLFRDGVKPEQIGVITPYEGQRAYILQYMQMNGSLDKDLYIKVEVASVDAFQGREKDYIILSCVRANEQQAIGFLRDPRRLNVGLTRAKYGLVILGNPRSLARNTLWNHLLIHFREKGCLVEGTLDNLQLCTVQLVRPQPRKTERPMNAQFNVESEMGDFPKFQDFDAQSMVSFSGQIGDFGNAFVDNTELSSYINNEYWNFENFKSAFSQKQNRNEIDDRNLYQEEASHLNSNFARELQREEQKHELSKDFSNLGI
T5 sequence 2: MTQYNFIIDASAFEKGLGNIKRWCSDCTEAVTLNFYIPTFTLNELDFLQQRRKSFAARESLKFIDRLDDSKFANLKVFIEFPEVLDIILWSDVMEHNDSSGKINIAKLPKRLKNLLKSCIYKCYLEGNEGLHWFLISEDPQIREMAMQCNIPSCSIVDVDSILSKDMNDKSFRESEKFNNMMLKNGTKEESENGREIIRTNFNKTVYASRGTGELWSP
T5 sequence 3: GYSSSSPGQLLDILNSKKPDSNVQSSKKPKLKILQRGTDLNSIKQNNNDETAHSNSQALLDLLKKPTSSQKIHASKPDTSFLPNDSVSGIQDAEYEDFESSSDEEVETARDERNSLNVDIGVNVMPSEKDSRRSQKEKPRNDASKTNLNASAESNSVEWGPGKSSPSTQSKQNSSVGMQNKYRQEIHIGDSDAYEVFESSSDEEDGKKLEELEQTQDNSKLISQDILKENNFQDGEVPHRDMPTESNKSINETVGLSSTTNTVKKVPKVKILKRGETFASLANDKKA

[6] = biological target: T6, Upf1-FL;Dcp2-UBM (Saccharomyces cerevisiae;Saccharomyces …, UniProt P30771;P53550 1-971;434-720, |)
T6 sequence 1: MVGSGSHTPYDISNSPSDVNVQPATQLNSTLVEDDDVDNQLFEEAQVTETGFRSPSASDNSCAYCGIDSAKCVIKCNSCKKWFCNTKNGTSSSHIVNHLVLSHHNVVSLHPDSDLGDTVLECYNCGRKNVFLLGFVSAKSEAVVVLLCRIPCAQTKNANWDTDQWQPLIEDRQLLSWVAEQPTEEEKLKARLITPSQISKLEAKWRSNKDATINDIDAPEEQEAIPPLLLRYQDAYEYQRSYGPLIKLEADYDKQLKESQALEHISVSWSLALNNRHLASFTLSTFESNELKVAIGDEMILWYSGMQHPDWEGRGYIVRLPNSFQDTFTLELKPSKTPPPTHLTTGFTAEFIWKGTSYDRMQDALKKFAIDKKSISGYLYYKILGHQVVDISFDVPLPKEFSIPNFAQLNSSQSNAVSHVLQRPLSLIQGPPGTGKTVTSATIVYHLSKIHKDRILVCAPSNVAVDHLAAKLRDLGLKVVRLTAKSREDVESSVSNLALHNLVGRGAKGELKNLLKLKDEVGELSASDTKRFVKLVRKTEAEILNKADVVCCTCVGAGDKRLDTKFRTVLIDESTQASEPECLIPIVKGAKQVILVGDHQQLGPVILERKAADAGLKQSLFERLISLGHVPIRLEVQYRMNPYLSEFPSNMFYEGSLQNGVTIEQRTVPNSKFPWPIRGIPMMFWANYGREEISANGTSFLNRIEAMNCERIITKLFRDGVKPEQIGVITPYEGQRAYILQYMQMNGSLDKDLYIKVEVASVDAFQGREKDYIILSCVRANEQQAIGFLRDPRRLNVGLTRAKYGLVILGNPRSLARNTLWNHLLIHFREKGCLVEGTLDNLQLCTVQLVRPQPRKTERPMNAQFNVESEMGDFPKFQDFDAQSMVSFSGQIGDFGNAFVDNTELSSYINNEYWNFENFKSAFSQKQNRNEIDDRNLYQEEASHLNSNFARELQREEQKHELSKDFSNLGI
T6 sequence 2: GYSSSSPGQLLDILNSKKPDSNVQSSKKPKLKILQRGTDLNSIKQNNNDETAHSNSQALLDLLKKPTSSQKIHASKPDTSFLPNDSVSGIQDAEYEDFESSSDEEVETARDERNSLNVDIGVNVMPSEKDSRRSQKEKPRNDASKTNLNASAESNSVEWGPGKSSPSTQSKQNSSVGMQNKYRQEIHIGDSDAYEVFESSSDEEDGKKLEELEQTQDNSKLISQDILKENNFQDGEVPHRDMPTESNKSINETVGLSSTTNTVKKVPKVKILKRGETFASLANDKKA

B1: 3'-biotinylated RNA (30-mer in Methods, called 33-mer in Results) (ssRNA)
RNA: CGUCCAUCUGGUCAUCUAGUGAUAUCAUCG
B1: no binding [1]; binds [2]; no binding [3]. B1: binds [4]; binds [5]; binds [6].
